Reference: publication PMC2742391 (Protein Engineering, Design and Selection, 2009)

Legend:
[1] = biological target: Torpedo californica acetylcholinesterase (Torpedo californica) (UniProt P04058); assay: kinetics of approach to equilibrium by enzyme activity
[2] = biological target: Torpedo californica acetylcholinesterase (Torpedo californica) (UniProt P04058); assay: titration of enzyme activity
[3] = biological target: T1, Torpedo californica acetylcholinesterase (Torpedo californica, UniProt P04058 22-564); assay: titration of enzyme activity
[4] = biological target: T1, Torpedo californica acetylcholinesterase; assay: kinetics of approach to equilibrium by enzyme activity

## fasciculin mutant K32R (natural protein)
[1]
  Kd: 2.6 nM
  koff: 0.09 s⁻¹
[2]
  Kd: 2.3 nM

## fasciculin mutant T9N (natural protein)
[2]
  Kd: 2.8 nM

## fasciculin mutant H29R (natural protein)
[1]
  Kd: 0.03 nM
  koff: 0.0127 s⁻¹
  kon: 3.9e+08 M⁻¹ s⁻¹
[2]
  Kd: 0.052 nM

## fasciculin mutant T8V (natural protein)
[2]
  Kd: 0.125 nM

## fasciculin double mutant T8V/T9N (natural protein)
[1]
  Kd: 0.6 nM
  koff: 0.0505 s⁻¹
  kon: 8.5e+07 M⁻¹ s⁻¹
[2]
  Kd: 0.64 nM

## fasciculin mutant R11K (natural protein)
[1]
  Kd: 0.63 nM
  koff: 0.0293 s⁻¹
  kon: 4.7e+07 M⁻¹ s⁻¹
[2]
  Kd: 0.53 nM

B1: recombinant wild-type fasciculin-2 (natural protein)
chain: TMCYSHTTTSRAILTNCGENSCYRKSRRHPPKMVLGRGCGCPPGDDNLEVKCCTSPDKCNY
[3]
  Kd: 0.31 nM
[4]
  Kd: 0.37 nM
  koff: 0.025 s⁻¹
  kon: 6.8e+07 M⁻¹ s⁻¹
